From US20190367631A1 (Regeneron, published 2019)

T1: mouse MSR1 extracellular domain expressed with a N-terminal nonahistidine tag (His9-mMSR1); R&D Systems, Cat … (mouse, UniProt P30204 79-458)
T1 construct: extracellular domain; not shown: N-terminal nonahistidine tag
T1 sequence (looked up): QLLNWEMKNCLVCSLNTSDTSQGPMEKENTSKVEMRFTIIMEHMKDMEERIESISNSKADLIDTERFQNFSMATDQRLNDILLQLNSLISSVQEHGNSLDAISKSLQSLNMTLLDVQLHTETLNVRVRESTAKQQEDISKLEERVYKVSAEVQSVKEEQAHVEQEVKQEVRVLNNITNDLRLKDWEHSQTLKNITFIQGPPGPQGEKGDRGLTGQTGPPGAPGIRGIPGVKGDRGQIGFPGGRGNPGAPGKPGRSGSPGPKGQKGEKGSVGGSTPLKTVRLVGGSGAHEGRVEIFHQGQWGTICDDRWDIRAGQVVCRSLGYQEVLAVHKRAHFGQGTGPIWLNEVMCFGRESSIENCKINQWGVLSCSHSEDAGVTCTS

T2: monkey MSR1 extracellular domain expressed with a N-terminal hexahistidine-myc-myc tag (HMM-mfMSR1) (monkey (Macaca fascicularis))
T2 chain: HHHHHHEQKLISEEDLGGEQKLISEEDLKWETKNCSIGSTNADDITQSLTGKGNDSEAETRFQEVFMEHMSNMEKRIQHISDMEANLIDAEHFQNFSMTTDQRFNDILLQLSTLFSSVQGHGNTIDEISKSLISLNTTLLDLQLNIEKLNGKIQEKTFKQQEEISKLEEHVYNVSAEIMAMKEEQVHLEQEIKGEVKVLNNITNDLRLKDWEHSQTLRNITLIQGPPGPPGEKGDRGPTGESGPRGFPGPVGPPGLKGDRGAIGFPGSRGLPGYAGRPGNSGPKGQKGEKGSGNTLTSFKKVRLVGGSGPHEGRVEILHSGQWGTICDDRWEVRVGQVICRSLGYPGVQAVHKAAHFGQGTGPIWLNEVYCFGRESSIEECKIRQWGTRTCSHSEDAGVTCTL

T3: human MSR1 extracellular domain expressed with a N-terminal nonahistidine tag (His9-hMSR1); R&D Systems, Cat … (human, UniProt P21757 77-451)
T3 construct: extracellular domain; also called His-hMSR1; 9xHis-hMSR1; not shown: N-terminal nonahistidine tag
T3 sequence (looked up): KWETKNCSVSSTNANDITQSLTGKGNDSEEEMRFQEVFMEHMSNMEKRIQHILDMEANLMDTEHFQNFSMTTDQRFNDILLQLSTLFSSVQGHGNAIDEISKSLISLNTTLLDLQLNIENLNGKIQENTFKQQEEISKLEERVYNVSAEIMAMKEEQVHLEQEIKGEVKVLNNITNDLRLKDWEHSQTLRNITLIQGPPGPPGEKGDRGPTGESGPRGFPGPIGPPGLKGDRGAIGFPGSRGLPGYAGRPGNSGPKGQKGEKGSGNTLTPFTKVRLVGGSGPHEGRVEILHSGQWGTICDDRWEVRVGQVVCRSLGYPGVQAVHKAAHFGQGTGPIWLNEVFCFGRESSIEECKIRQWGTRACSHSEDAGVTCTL


Legend:
[1] = target: T1, mouse MSR1 extracellular domain …; assay: BLI Octet, 25 C, antibody captured
[2] = target: T2, monkey MSR1 extracellular domain …; assay: SPR Biacore, 25 C, antibody captured;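 further: rates from 1:1 fit with mass transport limitation of real-time sensorgrams, HEPES-buffered saline with EDTA and Tween-20 at pH 7.4, KD and t½ derived from the kinetic rates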
Method: (§1) Binding affinities and kinetic constants of human anti-MSR1 antibodies for different MSR1 reagents were determined by real-time surface plasmon resonance (Biacore 4000). All binding studies were performed in 10 mM HEPES, 150 mM NaCl, 3 mM EDTA, and 0.05% v/v Surfactant Tween-20, pH 7.4 (HBS-ET) running buffer at 25° C. and 37° C.
(§2) The association rate (kₐ) and dissociation rate (kd) were determined by fitting the real-time binding sensorgrams to a 1:1 binding model with mass transport limitation using Scrubber 2.0c curve-fitting software. Binding dissociation equilibrium constant (KD) and dissociative half-life (t½) were calculated from the kinetic rates as:

[3] = target: T3, human MSR1 extracellular domain …; assay: SPR Biacore, 37 C, antibody captured
Method: as §1, §2

[4] = target: T2, monkey MSR1 extracellular domain …; assay: SPR Biacore, 37 C, antibody captured
Method: as §1, §2

[5] = target: T3, human MSR1 extracellular domain …; assay: SPR Biacore, 25 C, antibody captured; kd fixed, no dissociation seen
Method: as §1, §2

[6] = target: T1, mouse MSR1 extracellular domain …; assay: BLI Octet, 25 C, antibody captured; kd fixed, no dissociation seen
Method: (§3) Binding affinities and kinetic constants of human anti-MSR1 antibodies for different MSR1 reagents were determined using a real time, label-free bio-layer interferometry assay on an OCTET® HTX biosensor platform (Pall FortéBio Corp., Menlo Park, Calif.). The experiment was performed at 25° C. in 10 mM HEPES, 150 mM NaCl, 3 mM EDTA, 0.05% v/v Surfactant Tween-20, and 1 mg/mL BSA, pH7.4 (HBS-EBT) buffer with the plate shaking at the speed of 1000 rpm. […] The anti-MSR1 monoclonal antibodies were captured by dipping either anti-human Fc (AHC) or anti-mouse Fc (AMC) Octet biosensors in wells containing 5 pg/mL or 10 pg/mL of anti-MSR1 monoclonal antibody for 45-90 seconds. […] The binding of different MSR1 reagents to the captured anti-MSR1 monoclonal antibody was measured for 4 minutes and the dissociation of monoclonal antibody bound MSR1 reagent was monitored for 8-10 minutes in HBS-EBT buffer.
as §2

[7] = target: T3, human MSR1 extracellular domain …; assay: SPR Biacore, 37 C, antibody captured; kd fixed, no dissociation seen
Method: as §1, §2

[8] = target: T2, monkey MSR1 extracellular domain …; assay: as above
Method: as §1, §2

[9] = target: T2, monkey MSR1 extracellular domain …; assay: SPR Biacore, 25 C, antibody captured; kd fixed, no dissociation seen
Method: as §1, §2

[10] = target: T3, human MSR1 extracellular domain …; assay: BLI Octet, 25 C, antibody captured
Method: as §3, §2

[11] = target: T2, monkey MSR1 extracellular domain …; assay: BLI Octet, 25 C, antibody captured
Method: as §3, §2

Row | Binder | binding result [1] | Kd [2] [nM] | t½ [2] [min] | Kd [5] [nM] | koff [5] [s⁻¹] | kon [5] [M⁻¹ s⁻¹] | t½ [5] [min] | Kd [10] [nM] | koff [10] [s⁻¹] | kon [10] [M⁻¹ s⁻¹] | t½ [10] [min] | Kd [11] [nM] | koff [11] [s⁻¹] | kon [11] [M⁻¹ s⁻¹] | t½ [11] [min] | other results
1 | H1H27754P-N297Q (antibody, V domains shown, Human IgG1 Fc with N297Q point mutation) VH: EVQLVESGGGLVQPGGSLRLSCAASGFTFRTYAMTWVRQAPGKGLDWVSAITGDGGNTYYADSVKGRFTISRDNSKNTLYLQMNSLRAEDTAIYYCAKDQRFSFALYYFDYWGQGTLVTVSS VL: DIQMTQSPSSVSASVGDRVTITCRASQGISSWLAWYQQKPGNAPKLLIYAAFSLQSGVPSRFSGSGSGTDFTLTISSLQPEDFATYYCQQANNFPWTFGQGTKVEIKR | no binding (tested: 50 nM) | 0.075 | 657 | ≤ 0.0344 | ≤ 1e-05 | 290000 | 1160 | – | – | – | – | – | – | – | – | koff [2]: 1.76e-05 s⁻¹; kon [2]: 235000 M⁻¹ s⁻¹; Kd [3]: 0.0381 nM; koff [3]: 2.53e-05 s⁻¹; kon [3]: 663000 M⁻¹ s⁻¹; t½ [3]: 457 min; Kd [4]: 0.0504 nM; koff [4]: 3.53e-05 s⁻¹; kon [4]: 701000 M⁻¹ s⁻¹; t½ [4]: 327 min
2 | H1H21234N-N297Q (antibody, V domains shown, Human IgG1 Fc with N297Q point mutation (EU numbering)) VH: QVQLQESGPGLVKPSETLSLTCTVTGGSISRNYWSWIRQPPGKGLEWIGYIYYSGSIDYNPSLKSRVTISVDTSKNQFSLKLSSMTAADTAVYYCARDRWNWKYGMDVWGQGTTVIVSS VL: EIVLTQSPGTLSLSPGERATLSCRASQTVRNNYLAWYHQKPGQAPRLLIYGASSRATGIPDRFSGSGSGTDFTLTISRLEPEDFTVYYCHQYGNSPWTFGQGTKMEIKR | – | 0.0466 | 593 | ≤ 0.0201 | ≤ 1e-05 | 497000 | 1160 | – | – | – | – | – | – | – | – | koff [2]: 1.95e-05 s⁻¹; kon [2]: 408000 M⁻¹ s⁻¹; Kd [6]: ≤ 1.31 nM; koff [6]: ≤ 5e-05 s⁻¹; kon [6]: 38200 M⁻¹ s⁻¹; t½ [6]: 231 min; Kd [7]: 0.0127 nM; koff [7]: ≤ 1e-05 s⁻¹; kon [7]: 787000 M⁻¹ s⁻¹; t½ [7]: 1160 min; Kd [8]: 0.0133 nM; koff [8]: ≤ 1e-05 s⁻¹; kon [8]: 750000 M⁻¹ s⁻¹; t½ [8]: 1160 min
3 | H1H21234N (antibody, V domains shown, Original human IgG1 Fc (no N297 mutation)) VH: QVQLQESGPGLVKPSETLSLTCTVTGGSISRNYWSWIRQPPGKGLEWIGYIYYSGSIDYNPSLKSRVTISVDTSKNQFSLKLSSMTAADTAVYYCARDRWNWKYGMDVWGQGTTVIVSS VL: EIVLTQSPGTLSLSPGERATLSCRASQTVRNNYLAWYHQKPGQAPRLLIYGASSRATGIPDRFSGSGSGTDFTLTISRLEPEDFTVYYCHQYGNSPWTFGQGTKMEIKR | – | – | – | ≤ 0.0166 | ≤ 1e-05 | 604000 | 1160 | – | – | – | – | – | – | – | – | Kd [6]: ≤ 1.09 nM; koff [6]: ≤ 5e-05 s⁻¹; kon [6]: 46000 M⁻¹ s⁻¹; t½ [6]: 231 min; Kd [9]: ≤ 0.0298 nM; koff [9]: ≤ 1e-05 s⁻¹; kon [9]: 336000 M⁻¹ s⁻¹; t½ [9]: 1160 min; Kd [7]: 0.0148 nM; koff [7]: ≤ 1e-05 s⁻¹; kon [7]: 676000 M⁻¹ s⁻¹; t½ [7]: 1160 min; Kd [8]: 0.0138 nM; koff [8]: ≤ 1e-05 s⁻¹; kon [8]: 726000 M⁻¹ s⁻¹; t½ [8]: 1160 min
4 | H2aM25695N (antibody, V domains shown, Human variable domains with mouse IgG2a Fc; tied by the numerical identifier) VH: QVQLQESGPGLVKPSETLSLTCTVTGGSISRNYWSWIRQPPGKGLEWIGYIYYSGSINYNPSLKSRVTISVDMSKNQFSLKLNSVTAADTAVYYCARDRWNWKYGMDVWGQGTTVIVSS VL: EIVLTQSPGTLSLSPGERATLSCRASQTVRNSYLAWYHQKPGQAPRLLIYGASSRATGIPDRFSGSGSGTDFTLTISRLEPEDFAVYYCQQYGSSYWTFGQGTKMEIKR | no binding (tested: 100 nM) | – | – | – | – | – | – | 1.46 | 0.000527 | 360000 | 22 | 1.83 | 0.000571 | 312000 | 20 | –
5 | H2aM21235N (antibody, V domains shown, Human variable domains with mouse IgG2a Fc; tied by the numerical identifier) VH: EVQLVESGGGLVQPGGSLRLSCAASGFTFSDHYMDWVRQAPGKGLEWVGRTRNKANSYTTEYAASVSGRFTISRDDSKNSLYLQMNSLKTEDTAVYYCTRAGIIGTLFDYWGQGTLVTVSS VL: DIQMTQSPSSLSASVGDRVTITCRASQIIGRYLNWFQQKPGKVPKLLIYAASSLQRGVPSRFSGSGSGTDFTLTISSLQPEDFATYYCQQSYNTPPITFGQGTRLEIKR | no binding (tested: 100 nM) | – | – | – | – | – | – | 0.378 | – | – | 252 | 0.612 | – | – | 184 | –
6 | H2aM21228N (antibody, V domains shown, Human variable domains with mouse IgG2a Fc; tied by the numerical identifier) VH: VQLVESGGGLVQPGGSLRLSCAASGFTFSDHYMDWVRQAPGKGLEWVGRTRNKANSHTTEYAASVSGRFTISRDDSKNSLYLQMNSLKTEDTAVYYCTRAGIIGTLFDYWGQGTLVTVSS VL: not shown | no binding (tested: 100 nM) | – | – | – | – | – | – | 0.954 | 0.000116 | 122000 | 100 | 1.45 | 0.000146 | 100000 | 79 | –
7 | H2aM21229N (antibody, V domains shown, Human variable domains with mouse IgG2a Fc) VH: EVQLVESGGGLVKPGGSLRLSCAASGFTFSRYSMNWVRQAPGKGLEWVSSISSSSSYIYYGDTVKGRFTISRDNAKKSLYLQMNSLRAEDTAVYYCVRDRGQLVLYFDYWGQGTLVTVSS VL: DIQMTQSPASLSTSIRDRVTITCRASLSISSFLNWFQQRPGKAPKLLIYVASNLQSGVPSRFSDSGSGTDFTLTISSLQPEDFATYYCQQNYSTPPITFGQGTRLEIK | no binding (tested: 100 nM) | – | – | – | – | – | – | 0.7 | 0.00021 | 300000 | 55 | 16.4 | 0.00222 | 135000 | 5 | –
8 | H1H27732P-N297Q (antibody, V domains shown, Human IgG1 Fc with N297Q point mutation) VH: QLQLQESGPGLVKPSETLSLTCTVSGGSISSSTYYWGWIRQPPGKGLEWIGSFYYSGSTYYNPSLKSRVTISVGTSKNQFSLKLSSVTAADTAVYFCARGGLLGRPFVIWGQGTMVTVSS VL: DIQMTQSPSSLSASVGDRVTITCRASQGIRNDLGWYQQKPGKAPKRLIYAASSLQSGVPSRFSGSGSGTEFTLTISSLQPEDFATYYCLQHNSYPLTFGGGTKVEIKR | no binding (tested: 50 nM) | 0.248 | 364 | ≤ 0.0801 | – | – | 1160 | – | – | – | – | – | – | – | – | Kd [3]: 0.111 nM; t½ [3]: 370 min; Kd [4]: 0.317 nM; t½ [4]: 109 min
